Laboratory results reported in patent US9913914B2, “Cell transport” (priority 2013, dated 2018).

What was measured:
Type in all cases: cell-based, Dictyostelium discoideum
[1] = tested on: Dictyostelium cells (PTEN-null phenotype); test: Streaming/aggregation of starved wild-type Dictyostelium cultures compared with PTEN-null mutant; conditions: 10 micromolar dose
Description: FIG. 8. Cupid can transport large molecule cargo into the cell. Starved Dictyostelium cultures were plated into petri dishes in starvation buffer and visualised after 10 hours. In untreated wild-type (WT) cultures (A), cells stream together into aggregation centres, co-ordinated by cell to cell signaling.
In Dictyostelium, a genetic mutant in which the PTEN gene is absent causes marked changes in phenotype.

PTEN [2] = test: Inositol phospholipid levels in starving Dictyostelium cells (solvent extraction, thin layer chromatography); conditions: 10 micromolar, 1 hour
Description: FIG. 9. The levels of the 4 inositol phospholipids (PI, PIP, PIP2 and PIP3) in wild-type Dictyostelium cells undergoing starvation were measured by solvent extraction of cell cultures and analysis using thin layer chromatography. The effect of Cupid B-PTEN peptide treatment (10 micromolar, 1 hour) was calculated as a percentage change in the basal (untreated) levels.
The PTEN protein has a phospholipase enzymatic activity that functions to remove phosphate groups from inositol-based lipids and as such is involved with maintaining the balance between varieties of inositol phospholipids present at the cell surface. In wild-type cells undergoing starvation the inositol phospholipids with 3 and 4 phosphate groups (PIP2 and PIP3) are kept low, largely due to the action of PTEN.
We determined the effect of Cupid B-PTEN peptide on the inositol phospholipid levels in Dictyostelium cultures. Cupid B-PTEN peptide treated cells (10 micromolar, 1 hour) alters the basal levels of inositol phospholipids in Dictyostelium cells.

PTEN [3] = test: Protein phosphorylation response to cyclic AMP in starving Dictyostelium cultures (antibody detection on SDS gels); conditions: pretreated 1 hour, 10 micromolar
From the text: FIG. 10. In starving Dictyostelium cultures, several proteins undergo rapid phosphorylation/dephosphorylation events in response to an applied dose of cyclic AMP. The strength of this response is limited by PTEN enzyme activity. This response is visualised with antibody detection of these phosphoproteins on SDS gels prepared from extracted cultures at the time points indicated after the cAMP dose.
In starving Dictyostelium cultures, several proteins undergo rapid phosphorylation/dephosphorylation events in response to an applied dose of cyclic AMP. The strength of this initial phosphorylation response is limited by PTEN enzyme activity and is associated with changes in PIP2 and PIP3 inositol phospholipid levels.

B1: Cupid B-PTEN peptide: SEQ ID NO: 12; His-tagged Cupid B fused to 167 amino acid C2 region (186-352) of human PTEN (protein, listed as Homo sapiens)
chain: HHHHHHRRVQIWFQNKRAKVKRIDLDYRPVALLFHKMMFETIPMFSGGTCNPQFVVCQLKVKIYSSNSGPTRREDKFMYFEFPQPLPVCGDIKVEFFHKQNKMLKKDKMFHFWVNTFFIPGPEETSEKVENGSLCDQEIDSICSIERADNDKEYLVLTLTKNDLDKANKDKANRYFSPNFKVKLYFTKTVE
modifications: His tag
notes: His-tagged Cupid B fused to 167 amino acid C2 region (186-352) of human PTEN
aggregation behaviour of wild-type cells during starvation [1]: exhibit the same distinctive behaviour as the PTEN-Null strain
level of PIP2 relative to untreated basal levels (PTEN [2]): +75%
level of PIP3 relative to untreated basal levels (PTEN [2]): +150%
initial phosphorylation response to cyclic AMP versus untreated cultures (PTEN [3]): much stronger initial phosphorylation response
